Results on 3 molecules are retold here after patent US20190255165A1 (AMAL THERAPEUTICS, published 2019).

Experiment [1] has as its target T1, human TLR4 (human, UniProt O00206 24-839).
T1 construct: whole, on cells; Presented on HEK-hTLR4 cells; also called hTLR4
The experiment is described as follows: inferred from IL-8 secretion (ELISA) of HEK-hTLR4 cells, 1 µM. For orientation: ELISA stands for enzyme-linked immunosorbent assay.

Experiment [2] deals with T2, human TLR2 (human, UniProt O60603 21-784).
T2 construct: whole, on cells; Presented on HEK-Blue hTLR2 reporter cells; also called hTLR2
The experiment is described as follows: inferred from HEK-Blue hTLR2 reporter cells (QuantiBlue OD and IL-8 ELISA).

T2 sequence (O60603 21-784): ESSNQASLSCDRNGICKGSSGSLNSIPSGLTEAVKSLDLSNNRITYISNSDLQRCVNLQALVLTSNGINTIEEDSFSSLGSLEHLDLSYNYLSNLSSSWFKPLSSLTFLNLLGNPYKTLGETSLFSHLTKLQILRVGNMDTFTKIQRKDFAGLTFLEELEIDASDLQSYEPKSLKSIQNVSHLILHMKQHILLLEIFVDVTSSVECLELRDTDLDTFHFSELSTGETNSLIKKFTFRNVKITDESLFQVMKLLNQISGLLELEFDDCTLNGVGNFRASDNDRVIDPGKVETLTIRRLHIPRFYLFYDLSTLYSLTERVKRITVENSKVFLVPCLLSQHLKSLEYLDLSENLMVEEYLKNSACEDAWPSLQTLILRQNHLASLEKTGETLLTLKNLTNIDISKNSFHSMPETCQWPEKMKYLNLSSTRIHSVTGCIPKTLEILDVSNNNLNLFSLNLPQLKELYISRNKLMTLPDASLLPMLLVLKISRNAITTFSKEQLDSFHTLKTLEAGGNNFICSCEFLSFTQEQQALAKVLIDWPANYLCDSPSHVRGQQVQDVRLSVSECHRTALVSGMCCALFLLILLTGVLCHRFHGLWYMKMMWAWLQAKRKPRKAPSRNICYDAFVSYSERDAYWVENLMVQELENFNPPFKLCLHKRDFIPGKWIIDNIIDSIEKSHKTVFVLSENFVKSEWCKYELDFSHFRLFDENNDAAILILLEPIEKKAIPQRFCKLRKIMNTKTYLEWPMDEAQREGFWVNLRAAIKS
T1 sequence (O00206 24-839): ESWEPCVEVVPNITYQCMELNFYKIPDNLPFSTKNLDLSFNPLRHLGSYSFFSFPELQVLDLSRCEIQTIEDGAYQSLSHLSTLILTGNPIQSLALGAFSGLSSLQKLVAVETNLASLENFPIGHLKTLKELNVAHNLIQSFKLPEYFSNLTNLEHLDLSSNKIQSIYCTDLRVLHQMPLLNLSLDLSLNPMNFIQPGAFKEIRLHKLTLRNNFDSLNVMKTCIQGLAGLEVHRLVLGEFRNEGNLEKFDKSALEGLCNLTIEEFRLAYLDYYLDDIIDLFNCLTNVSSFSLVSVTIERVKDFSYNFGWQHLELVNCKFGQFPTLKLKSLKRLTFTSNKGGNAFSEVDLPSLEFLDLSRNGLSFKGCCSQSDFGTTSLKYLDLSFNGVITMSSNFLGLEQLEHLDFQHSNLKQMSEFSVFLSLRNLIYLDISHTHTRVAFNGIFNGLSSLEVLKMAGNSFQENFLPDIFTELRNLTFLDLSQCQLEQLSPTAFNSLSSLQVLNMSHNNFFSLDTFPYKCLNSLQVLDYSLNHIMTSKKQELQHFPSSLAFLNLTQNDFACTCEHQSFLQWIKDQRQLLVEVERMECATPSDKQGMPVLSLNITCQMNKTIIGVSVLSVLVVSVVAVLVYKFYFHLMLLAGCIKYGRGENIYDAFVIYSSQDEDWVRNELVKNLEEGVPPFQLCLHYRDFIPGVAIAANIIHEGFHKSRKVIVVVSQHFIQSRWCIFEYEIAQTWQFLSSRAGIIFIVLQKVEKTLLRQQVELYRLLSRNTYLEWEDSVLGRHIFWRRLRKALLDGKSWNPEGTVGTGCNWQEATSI

B1: Z13Mad5Anaxa (other)
chain: MHHHHHHKRYKNRVASRKSRAKFKQLLQHYREVAAAKSSENDRLRLLLKESLKISQAVHAAHAEINEAGREVVGVGALKVPRNQDWLGVPRFAKFASFEAQGALANIAVDKANLDVEQLESIINFEKLTEWTGSSTVHEILCKLSLEGDHSTPPSAYGSVKPYTNFDAE
notes: Recombinant fusion protein with N-terminal MHHHHHH; 18973 Da; also called fusion protein of cell-penetrating peptide Z13, MAD5 cargo and TLR peptide agonist Anaxa (C-terminal)
Take B1: the binding result in experiment [1] and in experiment [2] was “binds” in each case.

B2: EDAZ13Mad5 (other)
chain: MHHHHHHNIDRPKGLAFTDVDVDSIKIAWESPQGQVSRYRVTYSSPEDGIRELFPAPDGEDDTAELQGLRPGSEYTVSVVALHDDMESQPLIGIQSTKRYKNRVASRKSRAKFKQLLQHYREVAAAKSSENDRLRLLLKESLKISQAVHAAHAEINEAGREVVGVGALKVPRNQDWLGVPRFAKFASFEAQGALANIAVDKANLDVEQLESIINFEKLTEWTGS
notes: Recombinant fusion protein with N-terminal MHHHHHH; 25,057 Da; also called fusion protein of TLR4 peptide agonist EDA (N-terminal), Z13 and MAD5 cargo
Take B2: the binding result in experiment [1] is listed as “binds”.

B3: AnaxaZ13Mad5 (other)
chain: MHHHHHHSTVHEILCKLSLEGDHSTPPSAYGSVKPYTNFDAEKRYKNRVASRKSRAKFKQLLQHYREVAAAKSSENDRLRLLLKESLKISQAVHAAHAEINEAGREVVGVGALKVPRNQDWLGVPRFAKFASFEAQGALANIAVDKANLDVEQLESIINFEKLTEWTGS
notes: Recombinant fusion protein with N-terminal MHHHHHH; 18973 Da; also called AnaxZ13Mad5; fusion protein with Anaxa at the N-terminal position, Z13 and MAD5 cargo
As to B3, the binding result in experiment [2] is listed as “binds”.
